Results published in patent publication EP0860700A2.

Molecular target: HSV-1 major capsid protein VP5 (gene product of UL19) (herpes simplex virus type 1 (HSV-1))
Test: co-immunoprecipitation with VP5 antisera of in vitro translated radiolabeled protein mixed with BAC-VP5 Sf9 extract, SDS-PAGE

HSV-1 UL15 gene product (75 kD protein)
fold amount co-immunoprecipitated with VP5 against the negative control proteins (HPV-6b E1, HPV-16 E1, HPV-16 E2): 10 fold
